# Experimental data reported in patent US20220341931A1.
# Target: Influenza A [A/Hawaii/70/2019 (H1N1)pdm09-like virus] Hemagglutinin (HA), His-Tag (Native Antigen Co (Influenza A [A/Hawaii/70/2019 (H1N1)pdm09-like virus]))
substance,measurement,value
"SARS-CoV-2 (2019-nCoV) Nucleocapsid Antibody, Rabbit MAb (Sino Biological Cat: 40143-R019)",barcode sequence counts (FLU A),2000 counts
